Results from US20160272683A1 (Novo Nordisk, published 2016).
Numbered stars: 1 amine (or outer) side, 2 acyl side, 3 side chain; on linkers, the order of the positions; unused ones are H or OH. Square brackets hold non-standard residues; d marks the D form. * marks the point of attachment. C20 diacid = O=C(O)CCCCCCCCCCCCCCCCCCC(=O)*; γGlu = O=C(O)[C@H](CCC(=O)[*:2])N[*:1]; AEEA = NCCOCCOCC(=O)O

T1: human amylin receptor (amylin 3(a) receptor: human calcitonin receptor with RAMP-3) (human, UniProt P30988 25-474; O60896 24-148, limits assumed)
T1 construct: whole, on cells; Assay V: membranes of the Amylin 3(a)/CRE-luc BHK cells on SPA beads; also called hAmylin-R
T1 sequence (looked up) 1: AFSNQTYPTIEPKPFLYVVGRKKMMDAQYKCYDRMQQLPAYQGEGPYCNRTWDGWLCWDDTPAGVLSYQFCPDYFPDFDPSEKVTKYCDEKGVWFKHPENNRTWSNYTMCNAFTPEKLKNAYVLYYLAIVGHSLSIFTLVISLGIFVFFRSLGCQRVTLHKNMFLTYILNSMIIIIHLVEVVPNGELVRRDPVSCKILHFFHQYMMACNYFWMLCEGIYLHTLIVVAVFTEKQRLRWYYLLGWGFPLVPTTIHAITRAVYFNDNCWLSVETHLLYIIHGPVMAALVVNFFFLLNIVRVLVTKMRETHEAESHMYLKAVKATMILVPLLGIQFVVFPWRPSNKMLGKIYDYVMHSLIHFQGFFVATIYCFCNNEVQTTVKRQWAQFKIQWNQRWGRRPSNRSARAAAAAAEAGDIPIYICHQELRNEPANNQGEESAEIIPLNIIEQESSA
T1 sequence (looked up) 2: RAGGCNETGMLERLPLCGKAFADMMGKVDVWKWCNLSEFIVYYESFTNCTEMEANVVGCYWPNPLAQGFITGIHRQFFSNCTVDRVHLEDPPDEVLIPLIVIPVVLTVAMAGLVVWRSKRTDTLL

T2: human calcitonin receptor (human, UniProt P30988 25-474)
T2 construct: whole, on cells; Assay VII: membranes on SPA beads; also called hCT-R; hCTR
T2 sequence (looked up): T1 sequence (looked up) 1

B1: [N-terminal(C20 diacid-gGlu-OEG), des1, 30S, 31G]mimylin (peptide)
peptide: {C20 diacid-γGlu-AEEA}-ASELSTAALGRLSAELHELATLPRTETGSGSP-NH2
notes: mimylin derivative; des1 = residue 1 deleted; also called Ex. #41; 41
B2: [N-terminal(C20 diacid-gGlu), des1, 9S, 21S, 23Y, 30S, 31G, 33Y]mimylin (peptide)
peptide: {C20 diacid-γGlu}-ASELSTASLGRLSAELHELSTYPRTETGSGSY-NH2
SMILES: CC(C)C[C@H](NC(=O)[C@H](CO)NC(=O)[C@H](C)NC(=O)[C@@H](NC(=O)[C@H](CO)NC(=O)[C@H](CC(C)C)NC(=O)[C@H](CCC(=O)O)NC(=O)[C@H](CO)NC(=O)[C@H](C)NC(=O)CC[C@H](NC(=O)CCCCCCCCCCCCCCCCCCC(=O)O)C(=O)O)[C@@H](C)O)C(=O)NCC(=O)N[C@@H](CCCNC(=N)N)C(=O)N[C@@H](CC(C)C)C(=O)N[C@@H](CO)C(=O)N[C@@H](C)C(=O)N[C@@H](CCC(=O)O)C(=O)N[C@@H](CC(C)C)C(=O)N[C@@H](Cc1c[nH]cn1)C(=O)N[C@@H](CCC(=O)O)C(=O)N[C@@H](CC(C)C)C(=O)N[C@@H](CO)C(=O)N[C@H](C(=O)N[C@@H](Cc1ccc(O)cc1)C(=O)N1CCC[C@H]1C(=O)N[C@@H](CCCNC(=N)N)C(=O)N[C@H](C(=O)N[C@@H](CCC(=O)O)C(=O)N[C@H](C(=O)NCC(=O)N[C@@H](CO)C(=O)NCC(=O)N[C@@H](CO)C(=O)N[C@@H](Cc1ccc(O)cc1)C(N)=O)[C@@H](C)O)[C@@H](C)O)[C@@H](C)O
notes: mimylin derivative; des1 = residue 1 deleted; also called Ex. #100; 100
B3: [N-terminal(C20 diacid-gGlu), des1, 15e, 30S, 31G]mimylin (peptide)
peptide: {C20 diacid-γGlu}-ASELSTAALGRLS[dE]ELHELATLPRTETGSGSP-NH2
SMILES: CC(C)C[C@H](NC(=O)[C@H](C)NC(=O)[C@H](C)NC(=O)[C@@H](NC(=O)[C@H](CO)NC(=O)[C@H](CC(C)C)NC(=O)[C@H](CCC(=O)O)NC(=O)[C@H](CO)NC(=O)[C@H](C)NC(=O)CC[C@H](NC(=O)CCCCCCCCCCCCCCCCCCC(=O)O)C(=O)O)[C@@H](C)O)C(=O)NCC(=O)N[C@@H](CCCNC(=N)N)C(=O)N[C@@H](CC(C)C)C(=O)N[C@@H](CO)C(=O)N[C@H](CCC(=O)O)C(=O)N[C@@H](CCC(=O)O)C(=O)N[C@@H](CC(C)C)C(=O)N[C@@H](Cc1c[nH]cn1)C(=O)N[C@@H](CCC(=O)O)C(=O)N[C@@H](CC(C)C)C(=O)N[C@@H](C)C(=O)N[C@H](C(=O)N[C@@H](CC(C)C)C(=O)N1CCC[C@H]1C(=O)N[C@@H](CCCNC(=N)N)C(=O)N[C@H](C(=O)N[C@@H](CCC(=O)O)C(=O)N[C@H](C(=O)NCC(=O)N[C@@H](CO)C(=O)NCC(=O)N[C@@H](CO)C(=O)N1CCC[C@H]1C(N)=O)[C@@H](C)O)[C@@H](C)O)[C@@H](C)O
notes: mimylin derivative; des1 = residue 1 deleted; lower case e = D-form of Glu; also called Ex. #67; 67
B4: [N-terminal(C20 diacid-gGlu), des1, 12H, 30S, 31G]mimylin (peptide)
peptide: {C20 diacid-γGlu}-ASELSTAALGHLSAELHELATLPRTETGSGSP-NH2
notes: mimylin derivative; also called Ex. #72; 72
B5: [N-terminal(C20 diacid-gGlu), des1, 9T, 21S, 23Y, 30S, 31G, 33Y]mimylin (peptide)
peptide: {C20 diacid-γGlu}-ASELSTATLGRLSAELHELSTYPRTETGSGSY-NH2
SMILES: CC(C)C[C@H](NC(=O)[C@H](CCCNC(=N)N)NC(=O)CNC(=O)[C@H](CC(C)C)NC(=O)[C@@H](NC(=O)[C@H](C)NC(=O)[C@@H](NC(=O)[C@H](CO)NC(=O)[C@H](CC(C)C)NC(=O)[C@H](CCC(=O)O)NC(=O)[C@H](CO)NC(=O)[C@H](C)NC(=O)CC[C@H](NC(=O)CCCCCCCCCCCCCCCCCCC(=O)O)C(=O)O)[C@@H](C)O)[C@@H](C)O)C(=O)N[C@@H](CO)C(=O)N[C@@H](C)C(=O)N[C@@H](CCC(=O)O)C(=O)N[C@@H](CC(C)C)C(=O)N[C@@H](Cc1c[nH]cn1)C(=O)N[C@@H](CCC(=O)O)C(=O)N[C@@H](CC(C)C)C(=O)N[C@@H](CO)C(=O)N[C@H](C(=O)N[C@@H](Cc1ccc(O)cc1)C(=O)N1CCC[C@H]1C(=O)N[C@@H](CCCNC(=N)N)C(=O)N[C@H](C(=O)N[C@@H](CCC(=O)O)C(=O)N[C@H](C(=O)NCC(=O)N[C@@H](CO)C(=O)NCC(=O)N[C@@H](CO)C(=O)N[C@@H](Cc1ccc(O)cc1)C(N)=O)[C@@H](C)O)[C@@H](C)O)[C@@H](C)O
notes: mimylin derivative; des1 = residue 1 deleted; also called Ex. #99; 99

target: T1, human amylin receptor (amylin 3(a) …); test: SPA competition vs 125I-rat amylin, membranes with human CTR + RAMP-3 (Assay V)
Procedure: The binding assay was performed using scintillation proximity assay (SPA) beads (RPNQ0001) from PerkinElmer and cell membranes from the Amylin 3(a)/CRE-luc cells (as described in Assay (II)) were used. Membranes were prepared in the following way; the cells were rinsed with PBS and incubated with Versene for approximately 5 min before harvesting. The cells were flushed with PBS and the cell-suspension was centrifuged for 5 min at 1000 rpm. […] The resulting pellet was resuspended in buffer 2 and protein concentration was tested (BCA protein Assay, Pierce). The homogenate was kept cold during the whole procedure. The membranes were kept at −80° C. until use. The assay was performed in a 384 well Optiplate (PerkinElmer) in a total volume of 40 ul. Membranes were mixed with SPA beads. Final concentration of membranes 35 ng/μL final and SPA beads was 0.05 mg/well. Test-compounds were dissolved in DMSO and further diluted in assay buffer (50 mM Hepes, pH 7.4, 1 mM CaCl2, 5 mM MgCl2, 0.1% OA and 0.02% Tween20). […] Samples were analyzed on TopCounter™ (Packard). The IC₅₀ was calculated using (one site binding competition analysis) GraphPad Prism5 as a measure of receptor affinity.

Point of comparison: B3, IC50 0.029 nM. Against it:
- B1 — 4.9-fold higher, 0.141 nM
- B2 — 5.9-fold higher, 0.171 nM
- B4 — 19-fold higher, 0.565 nM
- B5 — 5.5-fold higher, 0.159 nM

target: T2, human calcitonin receptor; test: SPA competition vs 125I-calcitonin, membranes with human CTR (Assay VII)
Procedure: The binding assay was performed using scintillation proximity assay (SPA) beads (RPNQ0001) from PerkinElmer® and cell membranes prepared from a BHK tk'ts 13 cell line was stably transfected with the human calcitonin receptor and a CRE-responsive luciferase reporter gene. Membranes were prepared in the following way; the cells were rinsed with PBS and incubated with Versene for approximately 5 min before harvesting. The cells were flushed with PBS and the cell-suspension was centrifuged for 5 min at 1000 rpm.
EDTA (pH 7.4, buffer 2). The resulting pellet was resuspended in buffer 2 and protein concentration was tested (BCA protein Assay, Pierce). The homogenate was kept cold during the whole procedure. The membranes were kept at −80° C. until use. Assay was performed in a 384 well Optiplate (PerkinElmer®) in a total volume of 40 ul. Membranes were mixed with SPA beads. Final concentration of membranes 35 ng/μL final and Final concentration of SPA beads was 0.05 mg/well. Test-compounds were dissolved in DMSO and further diluted in assay buffer (50 mM Hepes, pH 7.4, 1 mM CaCl2, 5 mM MgCl2, 0.1% OA and 0.02% Tween20). […] Samples were analyzed on TopCounter™ (Packard). The IC₅₀ was calculated using (one site binding competition analysis) GraphPad Prism5 as a measure of receptor affinity.

Point of comparison: B3, IC50 0.022 nM. Against it:
- B1 — 3.9-fold higher, 0.085 nM
- B2 — 4.5-fold higher, 0.1 nM
- B4 — 4.4-fold higher, 0.097 nM
- B5 — 7-fold higher, 0.154 nM
